Test results as given in paper PMC12208130.

Target: T1, PTK7 (receptor on HCT116 cells) (human (HCT116 colon cancer cells)) (UniProt Q13308)
T1 sequence: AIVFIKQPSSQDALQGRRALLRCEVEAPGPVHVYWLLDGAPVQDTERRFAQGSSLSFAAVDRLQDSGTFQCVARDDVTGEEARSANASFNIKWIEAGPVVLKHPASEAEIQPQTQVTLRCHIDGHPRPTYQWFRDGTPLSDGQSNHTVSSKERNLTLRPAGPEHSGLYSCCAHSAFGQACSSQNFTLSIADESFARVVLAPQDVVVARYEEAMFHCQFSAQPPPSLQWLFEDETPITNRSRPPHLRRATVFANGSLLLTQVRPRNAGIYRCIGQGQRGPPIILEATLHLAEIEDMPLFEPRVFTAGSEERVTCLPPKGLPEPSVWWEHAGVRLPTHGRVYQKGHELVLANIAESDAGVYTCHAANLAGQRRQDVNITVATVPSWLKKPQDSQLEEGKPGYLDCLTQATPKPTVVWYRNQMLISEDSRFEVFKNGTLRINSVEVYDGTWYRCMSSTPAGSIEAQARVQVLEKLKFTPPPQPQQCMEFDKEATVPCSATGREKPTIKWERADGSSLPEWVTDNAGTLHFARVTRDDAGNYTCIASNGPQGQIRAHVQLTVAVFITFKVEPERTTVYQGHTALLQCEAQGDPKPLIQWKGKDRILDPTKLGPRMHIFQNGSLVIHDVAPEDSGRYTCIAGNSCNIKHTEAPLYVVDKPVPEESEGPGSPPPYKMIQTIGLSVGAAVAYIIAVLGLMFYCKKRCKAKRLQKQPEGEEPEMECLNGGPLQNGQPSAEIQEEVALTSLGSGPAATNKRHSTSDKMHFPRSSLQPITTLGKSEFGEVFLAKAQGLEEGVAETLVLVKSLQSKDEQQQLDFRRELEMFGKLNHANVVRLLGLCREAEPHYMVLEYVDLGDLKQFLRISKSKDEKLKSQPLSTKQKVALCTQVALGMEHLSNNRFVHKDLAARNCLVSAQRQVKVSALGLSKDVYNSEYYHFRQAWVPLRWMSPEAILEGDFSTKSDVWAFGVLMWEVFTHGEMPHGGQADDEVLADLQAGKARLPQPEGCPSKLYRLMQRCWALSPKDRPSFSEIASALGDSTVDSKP
Assay: flow cytometry
Details: 250 nM aptamer (varied for Kd), 30 min at 4 C, DPBS with ~5 mM MgCl2, 0.1 mg/mL yeast tRNA, 1 mg/mL BSA (a 2.25 g additive in the wash buffer is …)

| Sequence | Kd (A23 = cordycepin (3'-deoxyadenosine), 2'-5' linkage) | Kd |
| --- | --- | --- |
| ATCTAACTGCTGCGCCGCCGGGAAAATACTGTACGGTTAGA [Sgc8-23A] | 6.3 nM |  |
| ATCTAACTGCTGCGCCGCCGGGAAAATACTGTACGGTTAGA [Sgc8c (Sgc8-Cy5)] |  | 5.92 nM |
